Results from the supplement of paper PMC12764529.
± gives the half width of the 95% confidence interval.

Columns and labels:
[1] = folding stability dG unfold from chymotrypsin proteolysis; higher = more stable
How it was run: (§1)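 Digests were run with trypsin and chymotrypsin at 11 concentrations in threefold dilutions, plus a no-protease condition, on designed mini-proteins in a PA-tagged cDNA display construct. The mini-proteins were under 80 residues, had no cysteine, and were kept only when AlphaFold2 dimer inter-PAE was above 15. After sequencing, Bayesian fitting of the counts gave K50, from which unfolding free energy was derived against a sequence-predicted unfolded-state K50 and a shared folded-state K50, per protease or combined.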

[2] = folding stability dG unfold from trypsin proteolysis; higher = more stable
How it was run: as §1

[3] = folding stability dG unfold (combined trypsin and chymotrypsin); higher = more stable
How it was run: as §1

Sequence	folding stability dG unfold [1] [kcal/mol]	folding stability dG unfold [2] [kcal/mol]	folding stability dG unfold [3] [kcal/mol]
SAPDWVKIKFPFRFYNPDPDGKPMAKMKLEIEVYPSPGAYMAKIEDPNFGMKITFPFDSPEEVKDFLQNSAG [r14_508_TrROS]	1.14 ± 0.25	1.25 ± 0.083	1.23 ± 0.32
SKKTIYIVNEDGSIIRFDEETGEITIFNKETGKEVKIKVEKKGNELIITIEVNGKKYKIKIPKGDIIPIKSA [r9_239_TrROS_Hall]	4.16 ± 0.07	2.32 ± 0.062	3.68 ± 0.24
SAGMETIEVPLPVEEIKEALDAGLSPEEIARLLAEETGEEVEIEVGGRKITITRNEDGELIVRIEVKPDSAG [r5_343_TrROS_Hall]	2.22 ± 0.091	2.51 ± 0.085	2.36 ± 0.2
KIPITIEEDPEDKMYELRVPDGMPIQIQRSKDGYRVSIWNPDNGKPREIPITKKDLKDLLSNPGFWIEIYKS [r1_18_TrROS]	1.56 ± 0.078	1.64 ± 0.062	1.77 ± 0.11
SAGGGTFYLVVKVEKVAPNPETGELVEERLELVIPGKAPNAVSEEDLKAFVDALLPLGYKVEVELREGSAGG [r13_926_TrMRF]	2.07 ± 0.12	1.91 ± 0.12	2.07 ± 0.2
SAGGSMKTITDPGNLSEEEIKKILSKFPPNTTVTIEFPDATHTVTLNPDKIEISRDPSYPNFRITITISSAG [r5_373_JUSTAS]	2.01 ± 0.036	1.31 ± 0.029	1.72 ± 0.1
SEYSRIEFEDYTVLVVKKTLPNGKPLYLVRLYRKEDPKVDPVEVDSPEEAEEAVKELLKKHLPGEEVEKESA [r9_749_TrMRF]	3.3 ± 0.033	2.3 ± 0.11	3.08 ± 0.15
SNPENIDKITFTFRWPDGNPMEIEIDPDGTVEYEYPNGWEIEITIDPDDGKLTIEMTFPNGRPQEQKIPISA [r9_99_TrROS]	2.85 ± 0.097	1.86 ± 0.12	2.94 ± 0.38
SAGKMVKVEIVIDVPPEEITEEELKAILEEEAEEVEITFDEETGKITITVTVSEEEAEKLREALKELGASAG [r5_378_TrROS_Hall]	1.04 ± 0.13	1.02 ± 0.13	1.3 ± 0.26
SAEVEVLPFEFELPNGLRVEVHLVRLPDGTVVAPVLLVEYDPVTGEPRLSRAVAVFDPSTGKVTVLPLDSAG [r14_324_TrMRF]	2.993 ± 0.017	3.01 ± 0.047	2.97 ± 0.042
SKIKKIKRVEIFKKKEKGYVVKITVEIDGKEYEFTVPAGMSLEEALKELLKNKDVKIKSVEIKPVSKEELSA [r9_607_TrROS_Hall]	0.734 ± 0.18	0.0722 ± 0.22	0.595 ± 0.29
SAGSSVTAPFSLPSDLVVDSVTYDPDAKTVTVTVTDPRGGRKAVGTFPVWDPNGNPVLSTADSYTFDNPSAG [r5_434_TrMRF]	-0.0129 ± 0.058	-0.417 ± 0.03	-0.128 ± 0.053
SAGGIRIRDEDGKPRAEYTIYHPDHGMPIEINVYRNKDGNPYIQVEMTGPNGRPKKFTMPADDLNDLSAGGS [r8_24_TrROS]	0.559 ± 0.13	-0.862 ± 0.52	0.266 ± 0.082
SEAEVEVEVLPGPDAVVVRVRLPGRDEVVELRVLDPHPGEGRVLVAVSPGDDDTVVVRDLSPEDIKALLASA [r9_1221_TrMRF]	0.973 ± 0.055	1.843 ± 0.018	1.5 ± 0.056
SAGGPFDDFEPLGTIPFKVNGMEIEIQIWRMKNPGHYMVDIRNPGFGIPVMYWVPPGDIEEILDLIRSAGGS [r8_469_TrROS]	3.1 ± 0.059	2.22 ± 0.078	2.7 ± 0.14
SAGGSAGGSAGGSMLPPDTTVTSTTFLPNGTVVNTTTTYTATPDDTYTVTTTTTTTPLTSSAGGSAGGSAGG [r7_249_JUSTAS]	0.631 ± 0.16	0.765 ± 0.037	0.766 ± 0.11
SAGGSAGGSAGGSDDFVLRYRRRVRRKPKEVRLLPNGELVTGWEEEVSTFPVLTHPDDDSAGGSAGGSAGGS [r10_524_TrMRF]	0.5 ± 0.065	0.239 ± 0.11	0.448 ± 0.044
SAKKKITVKIKIEYDKETGTLKVEVEITYPDGKKVKVEAEIDLKTGKITIKVYDKNGKLIAEIEIELPPSAG [r14_524_TrROS_Hall]	2.35 ± 0.092	2.68 ± 0.25	2.61 ± 0.36
SAGKKKTVTIYLRVETPEEARKLVEELAKKLGAEVTSVEIEKVDGKYYVTVTIKVDGKEIKIVIEFEPSAGG [r19_262_TrROS_Hall]	3.03 ± 0.031	2.04 ± 0.045	2.67 ± 0.087
SAGKQEIKVEAVFPGDTLEEFMEFIREFLAEQGLKIEPTEFEIDKVQPMPGGPMIRVTAWIKIEPPDDSAGG [r19_325_TrROS]	2.95 ± 0.053	2.31 ± 0.11	2.8 ± 0.22
SAGGAGPEKAEELARALAAELEEEGREWRFKITYSAEPEILSIDVYPLSEPLVDDAKPGYRTLYYDAPSAGG [r13_693_TrMRF]	1.19 ± 0.29	0.659 ± 0.093	0.957 ± 0.12
